Among the data in patent publication US7855167 are Frequency of dominant Pair, Selection factor (competition selection) and frequency of the pair among sequenced colonies values, retold here.

The target in experiment [1] is WinZip-B1-DHFR[2:I114A] (murine) (UniProt P00375). Description: cell-based or functional assay.
Experiment [2] has as its target WinZip-B2-DHFR[2:I114A] (murine) (UniProt P00375). Description: cell-based or functional assay.

In experiment [1], “WinZip-A1-DHFR[1] (from UniProt P00375 1-107) (designed binder)” had a Frequency of dominant Pair at P12 of 82%, a Selection factor (competition selection) of 3.2e+06 and a frequency of the pair among sequenced colonies at P10 of 33%. In experiment [2], this substance showed a Frequency of dominant Pair at P12 of 67%, a Selection factor (competition selection) of 87000 and a frequency of the pair among sequenced colonies at P10 (fraction (3/5)) of 0.6.
